In the supplement of paper PMC10567573:

B1: AUP1 (parent)
chain: EGLLRFSSWPFSIQDVVQPLTLQV

Variants of: B1
Experiment: protein stability index of a GFP-peptide fusion (GPS, HEK-293T) (PSI 1-6); higher = more stable
Conditions: c terminus: a fixed tail appended
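Further: lentivirally expressed fusions sorted by FACS into six bins by GFP to DsRed ratio, PSI derived from sequencing read proportions per bin multiplied by bin number.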

| Variant | protein stability index |
| --- | --- |
| EGCLRFSSWPFSIQDVVQPLTLQV [L3C] | 4.98 |
| EGKLRFSSWPFSIQDVVQPLTLQV [L3K] | 2.2 |
| EGTLRFSSWPFSIQDVVQPLTLQV [L3T] | 4.12 |
| EGALRFSSWPFSIQDVVQPLTLQV [L3A] | 1.76 |
| EGELRFSSWPFSIQDVVQPLTLQV [L3E] | 2.41 |
| EGDLRFSSWPFSIQDVVQPLTLQV [L3D] | 1.83 |
| EGVLRFSSWPFSIQDVVQPLTLQV [L3V] | 2.22 |
| EGLLRFSSWPSSIQDVVQPLTLQV [F11S] | 3.39 |
| EGLLRFSSWPNSIQDVVQPLTLQV [F11N] | 1.85 |
| EGLLRFSSWPQSIQDVVQPLTLQV [F11Q] | 1.73 |
| EGLLRFSSWPDSIQDVVQPLTLQV [F11D] | 1.04 |
| EGLLRFSCWPFSIQDVVQPLTLQV [S8C] | 2.25 |
| EGLLRFSGWPFSIQDVVQPLTLQV [S8G] | 2.57 |
| EGLLRFSTWPFSIQDVVQPLTLQV [S8T] | 2.62 |
| EGLLRFSSCPFSIQDVVQPLTLQV [W9C] | 3.91 |
| EGLLRFSSKPFSIQDVVQPLTLQV [W9K] | 2.62 |
| EGLLRFSSRPFSIQDVVQPLTLQV [W9R] | 1.48 |
| EGLLRFSSMPFSIQDVVQPLTLQV [W9M] | 2.45 |
| EGLLRFSSYPFSIQDVVQPLTLQV [W9Y] | 3.88 |
| EGLNRFSSWPFSIQDVVQPLTLQV [L4N] | 1.52 |
| EGLSRFSSWPFSIQDVVQPLTLQV [L4S] | 1.27 |
| EGLCRFSSWPFSIQDVVQPLTLQV [L4C] | 3.27 |
| EGLGRFSSWPFSIQDVVQPLTLQV [L4G] | 4 |
| EGLKRFSSWPFSIQDVVQPLTLQV [L4K] | 1.19 |

| Variant | protein stability index |
| --- | --- |
| EGLLRFSSWPFSIQDVVQPLQLQV [T21Q] | 2.63 |
| ERLLRFSSWPFSIQDVVQPLTLQV [G2R] | 2.83 |
| EGLLRFSSWPFSTQDVVQPLTLQV [I13T] | 2.84 |
| EGLLRFSSWPFSDQDVVQPLTLQV [I13D] | 1.86 |
| EGLLRFSSWPFSIYDVVQPLTLQV [Q14Y] | 3.36 |
| EGLLRFDSWPFSIQDVVQPLTLQV [S7D] | 2.32 |
| EGLLRFYSWPFSIQDVVQPLTLQV [S7Y] | 3.72 |
| EGLLRFWSWPFSIQDVVQPLTLQV [S7W] | 1.83 |
| EGLLRFNSWPFSIQDVVQPLTLQV [S7N] | 2.32 |
| EGLLRFSSWPFSIQDVVQPLTLDV [Q23D] | 1.81 |
| EGLLRFSSWPFSIQDVVQPLTLEV [Q23E] | 2.65 |
| EGLLRFSSWPFSIQDVVQPLTLAV [Q23A] | 3.02 |
| EGLLRFSSWPFSIQDVVQPLTLGV [Q23G] | 1.4 |
| EGLLRFSSWPFSIQDVVQPLTLHV [Q23H] | 1.98 |
| EGLLRFSSWPFSIQDVVQPLTLSV [Q23S] | 1.4 |
| EGLLRFSSWPFSIQDVVQPLTLRV [Q23R] | 2.91 |
| EGLLRFSSWPFSIQDVVQPLTLMV [Q23M] | 3.98 |
| EGLLRFSSWPFSIQDVVQPLTLKV [Q23K] | 1.59 |
| EGLLRESSWPFSIQDVVQPLTLQV [F6E] | 1.36 |
| EGLLRTSSWPFSIQDVVQPLTLQV [F6T] | 1.06 |
| EGLLRPSSWPFSIQDVVQPLTLQV [F6P] | 2.07 |
| EGLLRLSSWPFSIQDVVQPLTLQV [F6L] | 2.09 |
| EGLLWFSSWPFSIQDVVQPLTLQV [R5W] | 3.31 |
| EGLLSFSSWPFSIQDVVQPLTLQV [R5S] | 2.64 |

| Variant | protein stability index |
| --- | --- |
| EGLLDFSSWPFSIQDVVQPLTLQV [R5D] | 1.73 |
| EGLLFFSSWPFSIQDVVQPLTLQV [R5F] | 3.67 |
| EGLLRFSSWPFSIQDVVQILTLQV [P19I] | 2.96 |
| EGLLRFSSWPFSIQDVVQLLTLQV [P19L] | 4.13 |
| EGLLRFSSWPFSIQDVNQPLTLQV [V17N] | 2.03 |
| EGLLRFSSWPFSIQDVEQPLTLQV [V17E] | 1.38 |
| EGLLRFSSWPFSIQDVCQPLTLQV [V17C] | 3.22 |
| EGLLRFSSWPFSIQDVVQPRTLQV [L20R] | 1.24 |
| EGLLRFSSWPFSIQDVVQPETLQV [L20E] | 1.89 |
| EGLLRFSSWPFSIQDVVQPTTLQV [L20T] | 1.73 |
| EGLLRFSSWPFSIQDVVQPQTLQV [L20Q] | 2.28 |
| EGLLRFSSWPFSIQDVVQPDTLQV [L20D] | 1.98 |
| EGLLRFSSWPFSIQDVVQPSTLQV [L20S] | 2.4 |
| EGLLRFSSWPFSIQDVVQPLTFQV [L22F] | 3.96 |
| EGLLRFSSWPFSIQDVVQPLTDQV [L22D] | 2.61 |
| EGLLRFSSWPFSIQDVVQPLTAQV [L22A] | 1.68 |
| EGLLRFSSWPFSIQDVVQPLTKQV [L22K] | 1.76 |
| EGLLRFSSWPFSIQDVVQPLTHQV [L22H] | 1.75 |
| EGLLRFSSWPFSIQDVVQPLTYQV [L22Y] | 2.16 |
| EGLLRFSSWPFSIQDVVQPLTTQV [L22T] | 2.47 |
| EGLLRFSSWPFSIQDVVQPLTNQV [L22N] | 1.27 |
| EGLLRFSSWPFSIQDVVQPLTVQV [L22V] | 2.62 |
| EGLLRFSSWPFSIQDVVQPLTGQV [L22G] | 1.6 |
| EGLLRFSSWPFSIQDLVQPLTLQV [V16L] | 1.28 |

| Variant | protein stability index |
| --- | --- |
| EGLLRFSSWPFSIQDPVQPLTLQV [V16P] | 3.33 |
| NGLLRFSSWPFSIQDVVQPLTLQV [E1N] | 2.31 |
| TGLLRFSSWPFSIQDVVQPLTLQV [E1T] | 1.8 |
| RGLLRFSSWPFSIQDVVQPLTLQV [E1R] | 4.19 |
| IGLLRFSSWPFSIQDVVQPLTLQV [E1I] | 1.02 |
| CGLLRFSSWPFSIQDVVQPLTLQV [E1C] | 3.48 |
| EGLLRFSSWPFPIQDVVQPLTLQV [S12P] | 2.66 |
| EGLLRFSSWPFDIQDVVQPLTLQV [S12D] | 1.95 |
| EGLLRFSSWPFMIQDVVQPLTLQV [S12M] | 3.22 |
| EGLLRFSSWTFSIQDVVQPLTLQV [P10T] | 2.79 |
| EGLLRFSSWHFSIQDVVQPLTLQV [P10H] | 4 |
| EGLLRFSSWAFSIQDVVQPLTLQV [P10A] | 3.01 |
| EGLLRFSSWVFSIQDVVQPLTLQV [P10V] | 3.54 |
| EGLLRFSSWYFSIQDVVQPLTLQV [P10Y] | 3.85 |
| EGLLRFSSWMFSIQDVVQPLTLQV [P10M] | 2.26 |
| EGLLRFSSWPFSIQDVVQPLTLQT [V24T] | 1.45 |
| EGLLRFSSWPFSIQDVVQPLTLQC [V24C] | 2.23 |
| EGLLRFSSWPFSIQDVVQPLTLQE [V24E] | 2.06 |
| EGLLRFSSWPFSIQDVVQPLTLQR [V24R] | 2.75 |
| EGLLRFSSWPFSIQDVVQPLTLQD [V24D] | 1.97 |
| EGLLRFSSWPFSIQDVVQPLTLQP [V24P] | 1.57 |
| EGLLRFSSWPFSIQDVVQPLTLQA [V24A] | 2.15 |
